Assay results taken from publication doi:10.1101/2022.05.11.22274678 (2022).

Assays:
[1] = target: T1, transketolase (TKT) from Clostridium leptum, TKT peptide 8 peptide on HLA-DQA1*05:01 / HLA-DQB1*03:02 (human); test: activation reporter or marker
T1 peptide: GHSVEALYCILADRG

[2] = target: T2, insulin B chain peptide on HLA-DQA1*05:01 / HLA-DQB1*03:02 (human); test: activation reporter or marker
T2 peptide: SHLVEALYLVCGERG

binding result [1]: recognises | binding result [2]: recognises
B1: GSE.166H9 (TCR)
alpha TRAV3 TRAJ21 CDR3: CAVMYNFNKFYF
beta TRBV12-3 TRBJ2-5 CDR3: CASSLGGRETQYF
